Where two headings read alike, the source gives them in different places.
T1: ADAMTS-7 (Homo sapiens, UniProt Q9UKP4)
T1 construct: the recombinant construct ADAMTS7-T8, which lacks the C-terminal PLAC domain; made in house
T1 sequence (Q9UKP4 237-1631 limits assumed): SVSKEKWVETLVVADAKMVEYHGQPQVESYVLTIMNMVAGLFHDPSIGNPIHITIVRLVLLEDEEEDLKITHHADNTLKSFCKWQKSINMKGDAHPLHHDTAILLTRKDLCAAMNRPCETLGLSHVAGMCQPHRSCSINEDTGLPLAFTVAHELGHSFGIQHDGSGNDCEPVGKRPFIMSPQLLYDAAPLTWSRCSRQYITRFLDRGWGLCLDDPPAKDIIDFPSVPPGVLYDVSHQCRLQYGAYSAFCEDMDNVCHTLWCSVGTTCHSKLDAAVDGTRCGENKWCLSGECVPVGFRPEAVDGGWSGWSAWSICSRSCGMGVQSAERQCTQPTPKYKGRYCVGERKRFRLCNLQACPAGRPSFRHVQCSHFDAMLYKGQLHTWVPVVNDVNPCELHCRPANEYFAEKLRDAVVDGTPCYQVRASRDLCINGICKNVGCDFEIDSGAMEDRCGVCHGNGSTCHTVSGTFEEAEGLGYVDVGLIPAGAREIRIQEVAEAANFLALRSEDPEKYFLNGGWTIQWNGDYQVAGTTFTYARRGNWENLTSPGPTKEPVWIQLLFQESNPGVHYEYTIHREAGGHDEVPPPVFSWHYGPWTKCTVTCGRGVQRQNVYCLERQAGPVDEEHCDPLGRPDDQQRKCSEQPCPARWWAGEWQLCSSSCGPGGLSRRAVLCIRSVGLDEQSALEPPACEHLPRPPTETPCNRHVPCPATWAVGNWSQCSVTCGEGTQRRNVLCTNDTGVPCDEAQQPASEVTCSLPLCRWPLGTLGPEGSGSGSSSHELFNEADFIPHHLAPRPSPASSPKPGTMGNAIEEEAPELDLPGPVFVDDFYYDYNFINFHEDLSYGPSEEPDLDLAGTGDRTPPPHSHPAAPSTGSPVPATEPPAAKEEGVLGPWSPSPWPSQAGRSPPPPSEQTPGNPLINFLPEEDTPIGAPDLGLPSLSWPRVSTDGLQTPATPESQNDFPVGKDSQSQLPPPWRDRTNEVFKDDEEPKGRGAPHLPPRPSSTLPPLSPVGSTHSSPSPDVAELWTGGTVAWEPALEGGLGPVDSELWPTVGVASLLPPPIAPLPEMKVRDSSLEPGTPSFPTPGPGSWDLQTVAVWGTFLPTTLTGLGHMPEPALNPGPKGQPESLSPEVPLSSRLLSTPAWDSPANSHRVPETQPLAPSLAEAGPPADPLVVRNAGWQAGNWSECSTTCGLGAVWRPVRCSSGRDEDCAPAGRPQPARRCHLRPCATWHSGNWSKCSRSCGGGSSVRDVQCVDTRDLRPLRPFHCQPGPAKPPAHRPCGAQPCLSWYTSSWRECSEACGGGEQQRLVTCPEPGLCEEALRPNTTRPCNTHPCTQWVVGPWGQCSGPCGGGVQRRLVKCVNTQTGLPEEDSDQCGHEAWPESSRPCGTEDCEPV


Columns and labels:
[1] = Appearance of solution upon dilution of peptide in assay buffer (solubility); format: physicochemical; conditions: 10 mM DMSO stock diluted in assay buffer
Protocol: The cleavage sites ^193Arg↓Ala^194 and ^195Glu↓Ala^196 were chosen to design the FRET substrate ATS7FP0 (Table 1). This peptide covers residues Ala^188-Ala^198 in LTBP4S and contains a FAM/TAMRA fluorophore/quencher pair. The quencher is covalently linked to the ε amino group of an extra C-terminal lysine residue. Stock solutions were routinely prepared at 10 mM in DMSO and stored at −80 °C. […] This was most likely due to the high content in hydrophobic amino acids of this peptide, which added to the hydrophobicity of the fluorophore/quencher pair. Nevertheless, ATS7FP0 generated fluorescence upon cleavage by ADAMTS-7 (Figure 2(A)). With the aim to improve both solubility and cleavage rate by ADAMTS-7, seven additional peptides were designed using the sequence of ATS7FP0 as a starting point. The N-terminal alanine residue present in ATS7FP0 was removed to generate peptide ATS7FP7 with a reduced aliphatic index (Table 1). […] To assess the effect of a P4′ proline residue on the cleavage rate, peptide ATS7FP7 was modified to generate ATS7FP8. […] Since we also determined that ADAMTS-7 prefers arginine in P1 (Figure 1(D)), we mutated one alanine residue in the parental sequence into arginine with the aim to improve both cleavage rate and hydrophilicity, thus generating peptide ATS7FP3. […]

[2] = target: ADAMTS7-T8 (recombinant human ADAMTS-7 construct lacking the C-terminal PLAC domain) (human) (UniProt Q9UKP4)
ADAMTS-7 [3] = target: T1, ADAMTS-7; test: Inhibition of ADAMTS-7 cleavage of FRET substrate ATS7FP7; format: biochemical
Protocol: All enzyme assays were conducted in TNC-B buffer (50 mM Tris- HCl, pH 7.5, 150 mM NaCl, 10 mM CaCl2, and 0.02% NaN3) at 37 °C in 384 well plates (Cat. No: 784900, Greiner Bio-One, Austria). To avoid the formation of inhibitor or peptide aggregates, the detergent Brij-35 (0.05%) was added to TNC-B[13]. For inhibition studies, stock solutions of chemical compounds were prepared in dimethyl sulfoxide (DMSO) (10 mM). […] Blank samples were prepared using buffer only and the rate of cleavage for blank reactions was subtracted from the rates measured in the presence of enzyme. Upon addition of the indicated ADAMTS-7 FRET substrates (40 µM), the fluorescence was measured immediately using a FLUOstar Omega microplate reader (BMG Labtech, Germany) with an excitation filter wavelength of 485 nm and an emission filter wavelength of 520 nm.

ADAMTS-7 [4] = target: T1, ADAMTS-7; conditions: read-out: Ki app for inhibition of cleavage of LTBP4; cited from earlier work
[5] = target: ADAMTS7-T8 (recombinant human ADAMTS-7 construct lacking the C-terminal PLAC domain) (human) (UniProt Q9UKP4); test: enzyme inhibition assay (cleavage of a FRET peptide); ADAMTS-7 (5 nM) pre-incubated 1 h at 37 °C with TIMP-4, then ATS7FP7 (40 µM) added; TNC-B buffer (50 mM Tris-HCl pH 7.5, 150 mM NaCl, 10 mM CaCl2, 0.02% NaN3) with 0.05% Brij-35; 384 well plates; apparent Ki from the Morrison equation for tight binding inhibitors

Chain of ADAMTS7-T8 (recombinant human ADAMTS-7 construct lacking the C-terminal PLAC domain) (human) (Q9UKP4 28-1686): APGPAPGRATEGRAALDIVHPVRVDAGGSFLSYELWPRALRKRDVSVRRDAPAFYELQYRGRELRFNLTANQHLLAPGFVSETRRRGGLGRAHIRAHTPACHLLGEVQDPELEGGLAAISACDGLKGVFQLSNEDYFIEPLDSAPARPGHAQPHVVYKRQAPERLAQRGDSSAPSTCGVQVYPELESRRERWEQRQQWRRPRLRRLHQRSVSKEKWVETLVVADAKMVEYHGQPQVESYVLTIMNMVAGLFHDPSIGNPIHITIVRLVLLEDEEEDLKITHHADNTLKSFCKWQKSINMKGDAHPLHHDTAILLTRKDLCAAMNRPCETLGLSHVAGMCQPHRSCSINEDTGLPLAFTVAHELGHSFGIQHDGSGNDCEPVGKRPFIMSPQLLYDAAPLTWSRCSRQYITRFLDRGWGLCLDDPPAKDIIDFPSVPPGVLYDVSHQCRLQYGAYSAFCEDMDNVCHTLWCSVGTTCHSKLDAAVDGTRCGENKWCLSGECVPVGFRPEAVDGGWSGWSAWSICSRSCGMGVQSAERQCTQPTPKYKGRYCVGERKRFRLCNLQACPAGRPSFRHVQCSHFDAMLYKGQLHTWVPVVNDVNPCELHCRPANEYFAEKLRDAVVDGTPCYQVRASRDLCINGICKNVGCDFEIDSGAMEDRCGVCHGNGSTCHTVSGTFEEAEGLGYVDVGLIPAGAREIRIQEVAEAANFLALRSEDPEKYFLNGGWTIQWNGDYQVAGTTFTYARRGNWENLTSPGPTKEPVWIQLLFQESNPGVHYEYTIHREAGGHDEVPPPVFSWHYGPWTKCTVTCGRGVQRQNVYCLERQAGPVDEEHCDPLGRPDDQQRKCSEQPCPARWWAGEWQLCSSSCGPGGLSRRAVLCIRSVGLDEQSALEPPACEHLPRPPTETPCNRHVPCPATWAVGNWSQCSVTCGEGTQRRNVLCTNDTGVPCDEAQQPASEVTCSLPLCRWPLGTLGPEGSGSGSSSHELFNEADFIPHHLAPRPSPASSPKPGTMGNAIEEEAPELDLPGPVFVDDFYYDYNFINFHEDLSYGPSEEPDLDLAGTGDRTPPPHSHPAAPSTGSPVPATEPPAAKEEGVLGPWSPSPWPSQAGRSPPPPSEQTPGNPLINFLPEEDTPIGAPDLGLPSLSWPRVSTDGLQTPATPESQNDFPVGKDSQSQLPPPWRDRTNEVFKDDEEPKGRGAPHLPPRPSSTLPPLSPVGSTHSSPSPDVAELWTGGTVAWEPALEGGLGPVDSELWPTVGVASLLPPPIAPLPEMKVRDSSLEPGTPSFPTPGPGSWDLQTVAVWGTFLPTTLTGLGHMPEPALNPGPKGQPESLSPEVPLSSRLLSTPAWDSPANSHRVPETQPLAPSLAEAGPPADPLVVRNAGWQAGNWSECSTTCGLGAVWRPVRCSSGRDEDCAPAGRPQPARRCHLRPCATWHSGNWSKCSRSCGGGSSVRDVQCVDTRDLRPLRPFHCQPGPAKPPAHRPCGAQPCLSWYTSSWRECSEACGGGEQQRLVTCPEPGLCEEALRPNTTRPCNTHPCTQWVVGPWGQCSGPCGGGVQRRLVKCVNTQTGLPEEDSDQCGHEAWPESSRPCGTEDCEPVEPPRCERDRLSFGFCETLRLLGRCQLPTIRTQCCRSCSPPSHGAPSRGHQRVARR

| appearance of solution upon dilution in the assay buffer (solubility) [1] | IC50 of inhibition of ADAMTS-7 cleavage of the FRET peptide substrate ATS7FP7 [2] | Ki (ADAMTS-7 [3]; 5 nM ADAMTS-7, Morrison equation for tight binding inhibitors, read-out: Ki app (ATS7FP7 substrate)) | IC50 (ADAMTS-7 [3]; ATS7FP7 40 μM, 1 h preincubation, 37 °C) | Ki [5] | Molecule | Ki (ADAMTS-7 [4]) |
| --- | --- | --- | --- | --- | --- | --- |
| non-homogenous |  |  |  |  | Ala-Glu-Ala-Ala-Ala-Arg↓Ala-Glu↓Ala-Ala-Ala-Lys [ATS7FP0] |  |
|  | 18 nM | 3.2 ± 1 nM | 18 ± 6 nM | 3.2 nM | Recombinant human tissue inhibitor of metalloproteinase (TIMP)-4 (natural protein) CSCAPAHPQQHICHSALVIRAKISSEKVVPASADPADTEKMLRYEIKQIKMFKGFEKVKDVQYIYTPFDSSLCGVKLEANSQKQYLLTGQVLSDGKVFIHLCNYIEPWEDLSLVQRESLNHHYHLNCGCQITTCYTVPCTISAPNECLWTDWLLERKLYGYQAQHYVCMKHVDGTCSWYRGHLPLRKEFVDIVQP | 13 nM |

Source: publication PMC8494430, “Development of a fluorogenic ADAMTS-7 substrate” (Journal of Enzyme Inhibition and Medicinal Chemistry, 2021)
